What was measured:
hGITR ECD hFc (human) [1] = target: hGITR ECD hFc (human) (UniProt Q9Y5U5); test: SPR; Biacore T200; hGITR ECD hFc immobilised on a Series S CM5 chip; antibody 0, 3.125, 6.25, 12.5, 25 and 50 nM; association 180 s, dissociation 600 s
[2] = target: human GITR on 293F‐hGITR cells (human) (UniProt Q9Y5U5)
hGITR ECD hFc (human) [3] = target: hGITR ECD hFc (human) (UniProt Q9Y5U5); test: ELISA; indirect ELISA; antigen hFc fusion protein coated on 96-well plates (1 μg·mL^−1 overnight at 4 °C in Fig. 3B), antibody added, detected with anti-rat IgG/hIgG-peroxidase antibody
[4] = target: cynoGITR ECD hFc (cynomolgus); test: as above
[5] = target: human GITR on 293F‐hGITR cells (human) (UniProt Q9Y5U5); test: flow cytometry on cells; 293F‐hGITR or 293F‐cynoGITR cells incubated with antibodies at 4 °C for 1 h, fluorescent anti-rat/human secondary antibody; EC50 of MFI curve
[6] = target: cynoGITR on 293F‐cynoGITR cells (cynomolgus); test: as above
hGITR ECD hFc (human) [7] = target: hGITR ECD hFc (human) (UniProt Q9Y5U5); test: SPR

Chain of hGITR ECD hFc (human) (Q9Y5U5 other isoform, or with tags, fused parts or gaps): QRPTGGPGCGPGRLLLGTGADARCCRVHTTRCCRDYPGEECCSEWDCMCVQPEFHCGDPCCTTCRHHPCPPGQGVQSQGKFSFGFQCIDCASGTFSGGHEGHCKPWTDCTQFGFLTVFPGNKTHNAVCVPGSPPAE
Chain of human GITR on 293F‐hGITR cells (human) (Q9Y5U5 26-241): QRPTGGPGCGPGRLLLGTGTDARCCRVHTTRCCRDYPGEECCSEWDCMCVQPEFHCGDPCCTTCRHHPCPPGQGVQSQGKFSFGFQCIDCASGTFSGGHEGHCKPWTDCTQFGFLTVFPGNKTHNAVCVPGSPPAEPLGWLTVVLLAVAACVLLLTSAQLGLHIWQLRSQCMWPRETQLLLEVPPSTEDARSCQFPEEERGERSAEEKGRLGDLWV

| Kd (hGITR ECD hFc (human) [1]) | NF‐ĸB luciferase reporter assay, Crosslinking, EC50 [2] | NF‐ĸB luciferase reporter assay, Crosslinking, Top ratio [2] | NF‐ĸB luciferase reporter assay, No crosslinking, EC50 [2] | NF‐ĸB luciferase reporter assay, No crosslinking, Top ratio [2] | T‐cell activation (IFN‐γ secretion), Donor#1, EC50 [2] | T‐cell activation (IFN‐γ secretion), Donor#2, EC50 [2] | T‐cell activation (IFN‐γ secretion), Donor#3, EC50 [2] | EC50 (hGITR ECD hFc (human) [3]) | EC50 [4] | EC50 [5] | EC50 [6] | koff (hGITR ECD hFc (human) [7]) | Substance |
| --- | --- | --- | --- | --- | --- | --- | --- | --- | --- | --- | --- | --- | --- |
| 3.82 nM | 0.336 nM | 32 fold | 0.829 nM | 14 fold | 0.0106 nM | 0.00559 nM | 0.00681 nM | 0.954 nM | 1.12 nM | 0.027 nM | 0.007 nM | – | Tab6C8 (antibody) |
| – | – | – | – | – | – | – | – | – | – | – | – | 0.0044 s⁻¹ | Tab6C8 |
